{"source": "paper PMC3201880", "about": "(Nucleic Acids Research, 2011)", "key": {"[1]": {"target": "T1, TnpA-His6 (IS608 transposase) (Helicobacter pylori (IS608), UniProt Q933Z0 1-155)", "T1 sequence": "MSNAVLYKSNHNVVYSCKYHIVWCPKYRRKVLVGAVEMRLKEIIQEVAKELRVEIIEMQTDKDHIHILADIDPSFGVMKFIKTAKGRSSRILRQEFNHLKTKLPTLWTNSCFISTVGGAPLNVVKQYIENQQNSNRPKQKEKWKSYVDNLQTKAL", "test": "EMSA"}, "[2]": {"target": "T1, TnpA-His6 (IS608 transposase)", "test": "EMSA", "remark": "listed apart in the source"}, "[3]": {"target": "T1, TnpA-His6 (IS608 transposase)", "test": "EMSA", "remark": "listed apart in the source"}, "cross-linking": {"target": "the molecule itself", "test": "cross-linking"}}, "note": "Like-named read-outs stand apart in the source and are kept apart here.", "data": [{"binder": "GCTTTAGCTAGAATCCCCTAGCTTTAGCTATGGGGAGTATGTCAATTCG (ssDNA)", "note": "[RE49]", "values": [{"measurement": "binding result", "setting": "[1]", "result": "binds"}]}, {"binder": "RE56 (ssDNA) DNA: CTCATGCTTTAGCTAGAATCCCCTAGCTTTAGCTATGGGGAGTATGTCAACAAATT", "values": [{"measurement": "binding result", "setting": "[2]", "result": "binds"}]}, {"binder": "GAATCCCCTAGCTTTAGCTATGGGGAGTATGTCAACAAATTTGCC (ssDNA)", "note": "[RE45]", "values": [{"measurement": "binding result", "setting": "[2]", "result": "binds"}]}, {"binder": "LE80 (ssDNA) DNA: CGCTAGTGCAAAAATTACCAAAACTAACGCCTTAAAGCCCCTAGCTTTTAGCTATGGGGATACAAGGCGAAACGCCTTTA", "values": [{"measurement": "binding result", "setting": "[3]", "result": "binds"}]}, {"binder": "GCTTTAGCTAGAATCCCCTAGCTTTAGCTATGGGGAGTATGTCAA (ssDNA)", "note": "[RE45_pc (precleaved)]", "values": [{"measurement": "binding result", "setting": "[2]", "result": "binds"}]}, {"binder": "RE70 (ssDNA) DNA: TTCCTCATGCTTTAGCTAGAATCCCCTAGCTTTAGCTATGGGGAGTATGTCAACAAATTTGCCTAATGAC", "values": [{"measurement": "binding result", "setting": "[3]", "result": "binds"}]}, {"binder": "TnpA-His6 (transposase of IS608) (enzyme, Helicobacter pylori, UniProt Q933Z0 1-155, looked up) MSNAVLYKSNHNVVYSCKYHIVWCPKYRRKVLVGAVEMRLKEIIQEVAKELRVEIIEMQTDKDHIHILADIDPSFGVMKFIKTAKGRSSRILRQEFNHLKTKLPTLWTNSCFISTVGGAPLNVVKQYIENQQNSNRPKQKEKWKSYVDNLQTKAL", "values": [{"measurement": "stoichiometry N", "setting": "cross-linking", "result": 2}]}]}
